Positions count from the first letter of the chain named. Each block holds one molecule with its values, some of them ahead of it.
How the values were obtained:
[1] = target: His6-importin α-CyPet / S-His6-importin β (UniProt P52292); test: FRET or BRET
[2] = target: 6HisGFP-XCTK2-MBD2^mut (Xenopus) (UniProt P79955); test: co-sedimentation
[3] = target: GFP-XCTK2 (full-length, wild type) (Xenopus) (UniProt P79955); test: co-sedimentation
[4] = target: doubly stabilized microtubules (GMPCPP and paclitaxel) polymerized from cycled bovine tubulin (bovine, UniProt Q6B856 1-445); test: co-sedimentation

Chain of GFP-XCTK2 (full-length, wild type) (Xenopus) (P79955 whole entry): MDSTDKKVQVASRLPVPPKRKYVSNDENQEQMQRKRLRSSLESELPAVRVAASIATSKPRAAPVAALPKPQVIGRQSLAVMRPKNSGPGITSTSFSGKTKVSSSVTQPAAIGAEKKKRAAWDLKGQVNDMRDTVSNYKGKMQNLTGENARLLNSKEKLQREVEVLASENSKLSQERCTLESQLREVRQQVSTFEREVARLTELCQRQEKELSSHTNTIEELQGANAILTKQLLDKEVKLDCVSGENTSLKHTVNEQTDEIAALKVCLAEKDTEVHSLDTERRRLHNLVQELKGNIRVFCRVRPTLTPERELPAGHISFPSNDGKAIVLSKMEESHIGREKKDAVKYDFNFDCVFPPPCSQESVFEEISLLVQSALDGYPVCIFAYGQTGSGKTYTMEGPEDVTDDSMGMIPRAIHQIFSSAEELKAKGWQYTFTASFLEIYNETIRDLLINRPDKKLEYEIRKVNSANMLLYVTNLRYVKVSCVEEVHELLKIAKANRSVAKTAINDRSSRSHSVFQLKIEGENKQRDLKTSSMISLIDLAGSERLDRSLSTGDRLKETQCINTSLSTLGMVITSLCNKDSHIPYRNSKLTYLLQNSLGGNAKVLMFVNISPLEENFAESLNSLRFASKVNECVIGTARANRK

Molecule: YPet-Tail C2 (from UniProt P79955 62-120) (domain or fragment)
fold higher apparent Kd than YPet-Tail [1]: 8 fold

B1: YPet-Tail N3 (domain or fragment, Xenopus, UniProt P79955 2-79, looked up)
chain: DSTDKKVQVASRLPVPPKRKYVSNDENQEQMQRKRLRSSLESELPAVRVAASIATSKPRAAPVAALPKPQVIGRQSLA
fold higher apparent MT affinity than YPet-Tail C2 [4]: ~2 fold | stoichiometry N [4]: 1.1 per tubulin dimer

B3: YPet-Tail C2 (domain or fragment, Xenopus, UniProt P79955 62-120, looked up)
chain: APVAALPKPQVIGRQSLAVMRPKNSGPGITSTSFSGKTKVSSSVTQPAAIGAEKKKRAA
stoichiometry N [4]: 1.1 per tubulin dimer

More lines, now with the values ahead:

fold higher apparent Kd than YPet-Tail [1]: 8 fold
Molecule: YPet-Tail C3 (from UniProt P79955 80-120) (domain or fragment)

percent reduction of MT binding by 0.4 µM importin α/β [2]: 43% | percent reduction of MT binding by 0.4 µM importin α/β [3]: 64%
Molecule: importin α-His6 / S-His6-importin β (from UniProt P52292 1-529; Q14974 1-876) (complex)

fold higher Kd than YPet-Tail N3 [4]: 10 fold
B2: YPet-Tail N3-MBD1^mut (domain or fragment)
chain: B1 chain with K18A, R19A, K20A, R33A, K34A, R35A
